The target in the assay is T1, cynomolgus Nectin-4 protein expressed on CHO cells (cynomolgus, UniProt Q96NY8 32-510 (human entry)).
T1 construct: also called Cyno Nectin-4 V5
T1 chain: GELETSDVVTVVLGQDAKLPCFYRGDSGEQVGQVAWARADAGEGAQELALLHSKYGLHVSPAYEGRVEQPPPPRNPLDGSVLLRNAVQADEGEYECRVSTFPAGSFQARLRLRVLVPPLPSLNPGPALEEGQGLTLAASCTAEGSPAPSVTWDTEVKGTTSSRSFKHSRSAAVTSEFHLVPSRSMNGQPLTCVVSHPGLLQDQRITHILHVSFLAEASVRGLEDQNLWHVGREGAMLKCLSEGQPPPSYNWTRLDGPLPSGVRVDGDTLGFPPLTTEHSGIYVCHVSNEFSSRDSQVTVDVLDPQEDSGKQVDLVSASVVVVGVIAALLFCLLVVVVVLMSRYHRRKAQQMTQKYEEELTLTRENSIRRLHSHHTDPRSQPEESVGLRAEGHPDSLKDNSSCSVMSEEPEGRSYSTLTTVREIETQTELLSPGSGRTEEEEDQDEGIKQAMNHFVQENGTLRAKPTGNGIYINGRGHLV
The assay is described as follows: flow cytometry on CHO cells expressing cynomolgus Nectin-4, Median MFI (PE). As for the experimental part:
Anti-Nectin-4 antibodies were tested by flow cytometry for binding to different CHO cell lines made to express respectively the mouse, cynomolgus and rat Nectin-4 protein (including an N-terminal V5 tag not shown in the sequences below).
On the technique in general: In flow cytometry, cells or beads pass a laser one at a time.

B1: chimeric parental 5E7 antibody (antibody, V domains shown)
VH: QVQLQQPGAELVKPGASVKLSCKASGYIFTSYWMHWVKQRPGQGLEWIGEIDPSDSYTNYNQKFKGKATLTLDKSSSTTYMQLSSLTSEDSAVYYCVRGYGNYGDYWGQGTTLTVSS
VL: DVVMTQAAFSNPVTLGTSASISCRSSKSLLHSNGITYLYWYLQKPGQSPQLLIYQMSNLASGVPDRFSSSGSGTDFTLRISRVEAEDVGVYYCAQNLELPWTFGGGTKLEIKR
notes: Chimeric antibody, murine variable domains with human constant regions; also called ch5E7; CHG1-M-1N4-5E7
Broadly, the EC50 (read off the curve) is the concentration needed to bring the measured effect to its halfway point. As for B1, the “EC50 (read off the curve)” value was roughly 0.03 µg/mL.

(Values after patent US20250297004A1, “NECTIN-4 BINDING AGENTS” (INNATE PHARMA, priority 2022, published 2025).)
